B1: MAE13 (antibody, V domains shown)
VH: DVQLQESGPGLVKPSQSLSLTCTVTGYTITSDNAWNWIRQFPGNKLEWMGYINHSGTTSYNPSLKSRISITRDTSKNQFFLQLNSVTTEDTATYYCAWVVAYAMDYWGQGTSVTVSS
VL: DIVMTQSQKFMSTSVGDRVSVTCKASQNVSSNVAWYQQKPGQSPKALIYSASYRYSGVPDRFTGSGSGTDFTLTISNVQSEDLAEYFCQQYYTYPLYTFGGGTKLEIKR
B2: MAE11 (antibody, V domains shown)
VH: DVQLQESGPGLVKPSQSLSLACSVTGYSITSGYSWNWIRQFPGNKLEWMGSITYDGSSNYNPSLKNRISVTRDTSQNQFFLKLNSATAEDTATYYCARGSHYFGHWHFAVWGAGTTVTVSS
VL: DIVLTQSPASLAVSLGQRATISCKASQSVDYDGDSYMNWYQQKPGQPPILLIYAASYLGSEIPARFSGSGSGTDFTLNIHPVEEEDAATFYCQQSHEDPYTFGAGTKLEIK
B3: MAE15 (antibody, V domains shown)
VH: DVQHQESEPDLVKPSQSLSLTCTVTGYSITSGYNRHWIRQFPGNKLEWMGYIHYSGSTNYNPSLKRRISITRDTSKNQFFLQLNSVTTEDTATYYCARGSIYYYGSRYRYFDVWGAGTTVTVSS
VL: DIQLTQSPASLAVSLGQRATISCKASQSVDYDGDSYMNWYQQKPGQPPKLLIYAASNLESGIPARFSGSGSGTDFTLNIHPVEEEDAATYYCQQSNEDPFTFGAGT

This assay concerns the target membrane IgE on U266 B1 cells (human) (UniProt P01854). The assay is described as follows: FACS, U266 B1 cells.
B1 had an EC50 of 1 mg/L.
The value for B2 was 0.15 mg/L; that for B3 was 6 mg/L.

For orientation: EC50 means the concentration at which the effect is half-maximal.

For the origin of these results see US20070020258A1.
